Measured values taken from publication PMC8741891.

Biological target: Escherichia coli heat-labile enterotoxin holotoxin (human enterotoxigenic strain PE0415), nicked and reduced (E. coli (human enterotoxigenic strain PE0415)) (UniProt P43530)
Assay: ELISA; […] (1 ug/mL) […] (20 ug/mL, […]) for 1 h at 37 C; […]

## protein disulfide isomerase, reduced (from UniProt P07237 18-508) (enzyme)
  percent of A1 released from the holotoxin by PDI: 7%
